Experimental data from the Human Domainome abundance scans (Beltran et al. 2025).

B1: Far upstream element-binding protein 3, residues 75 to 150; numbered along this chain, Q96I24 (parent)
chain: RTVITEEFKVPDKMVGFIIGRGGEQISRIQAESGCKIQIASESSGIPERPCVLTGTPESIEQAKRLLGQIVDRCRN

Variants of: B1
Test: abundance fitness (aPCA) (normalised: wild type 0, dead -1); higher = more abundant; growth selection in yeast, the domain comes from the species named
Details: Homo sapiens

Abundance fitness of substitutions, site by site:
G20: V -0.707, N -0.17, Q -0.116, D -0.104, S -0.151, E -0.127, R -0.168, W -0.483, H -0.243, Y -0.524, T -0.228, L -0.474, A -0.118, P -0.347, M -0.312, C -0.459
G16: I -0.194, S -0.032, F -0.223, E -0.001, P -0.029, L -0.148, M -0.12, C -0.074, W -0.21, Y -0.135, K 0.018, V -0.172, N -0.055, Q -0.027, T -0.063, H -0.042, D -0.003, R -0.037
I4: N -0.081, E -0.059, Y -0.006, S -0.141, A -0.122, G -0.14, V -0.047, H -0.146, Q -0.087, K -0.035, R -0.065, T -0.045, W -0.125, L -0.081, F -0.095, C -0.092
G22: S -0.078, A -0.045, I -0.086, E -0.044, Y -0.161, F -0.1, R -0.012, V -0.191, D 0.016, N 0.006, T -0.09, P -0.276, K -0.007, W -0.149, C -0.057, Q -0.085
F8: N -0.353, D -0.208, K -0.397, T -0.042, R -0.543, Q -0.34, H -0.173, L -0.097, Y -0.024, E -0.351, C -0.317, V -0.064, M -0.083, P -0.651, S -0.18, W -0.027
E7: P -0.136, H -0.002, Y -0.037, S -0.019, L -0.048, V -0.036, A -0.078, T -0.002, G -0.083, K -0.01, D -0.02, I -0.048, C -0.135, F 0.088, R -0.057, M -0.111, Q -0.072
K9: G -0.006, D -0.129, L -0.021, F -0.031, N -0.109, W -0.053, Y -0.114, A -0.006, S 0.025, C -0.057, V -0.047, M -0.016, E -0.044, T -0.057, R -0.09, I -0.106, H 0.012, Q -0.007
M14: L -0.061, I -0.33, F -0.127, W -0.063, N -0.101, K -0.345, C -0.063, P -0.451, R -0.423, A -0.172, G -0.311, E -0.216, D -0.126, H -0.089, Y -0.176, Q -0.248, V -0.159
P11: T -0.136, A -0.219, S -0.182, C -0.239, M -0.259, F -0.422, D -0.061, Y -0.303, H -0.217, L -0.236, Q -0.235, E -0.109, G -0.254, I -0.297, K -0.298, R -0.288
V15: G -0.135, P -0.37, E -0.183, N -0.349, L -0.061, I -0.111, S -0.102, H -0.218, D -0.324, M -0.073, Q -0.162, T -0.158, A -0.059, Y -0.141, C -0.108, F -0.072, K -0.119
G23: I -0.294, M -0.078, N -0.058, R -0.056, K -0.082, Q -0.042, H -0.077, S -0.087, E -0.037, C -0.17, F -0.117, D -0.091
V3: Y -0.053
I18: M -0.079, L -0.085, K -0.279, R -0.425, Y -0.261, A -0.225, H -0.279, W -0.243, V -0.085, G -0.272, S -0.271, N -0.295, D -0.142, Q -0.234, E -0.182, P -0.192, F -0.133
K13: W -0.142, D -0.082, A -0.054, T -0.073, C -0.058, E -0.032, R -0.046, Q -0.017, I -0.286, G -0.027, N 0.004, Y 0.022, L -0.198, S -0.018, F -0.243, M -0.207, H 0.016, V -0.263
I19: G -0.102, M -0.062, K -0.057, V -0.033, E -0.081, L -0.024, N -0.001, W -0.096, H -0.163, A -0.074, R -0.045, Q -0.048, S -0.045, T -0.039, P -0.25, C -0.093, D -0.071
F17: E 0.025, V -0.028, L -0.065, G -0.06, I -0.05, Q -0.031, C -0.074, R -0.018, S -0.034, N -0.141, W -0.052, D 0.081, A -0.013, P -0.095, H -0.026, Y -0.019
T5: V -0.09, I -0.231, W -0.192, H -0.071, F -0.201, S -0.082, Y -0.164, G -0.3, L -0.314, P -0.394, C -0.203, E -0.043, K -0.068, Q -0.099, R -0.063, D -0.204
R21: F -0.147, N 0.004, L -0.057, H -0.028, E 0.004, K -0.025, G -0.064, Q -0.009, Y -0.182, W -0.187, D -0.071, C -0.089, M -0.002, A 0.005, T 0.009, S 0.005, I -0.107, V -0.057
E6: Y -0.145, Q -0.068, P -0.807, G -0.19, F -0.16, A -0.067, T -0.06, W -0.375, M -0.103, D -0.084, I -0.111, S -0.042, R -0.099, V -0.051, C -0.022, K -0.018, H -0.09, N -0.242, L -0.235
V10: K -0.794, W -0.295, H -0.4, M -0.122, Y -0.291, Q -0.675, N -0.612, R -0.8, P -0.514, E -0.631, F -0.055, T -0.407, D -0.479, A -0.287, I -0.036, G -0.634, L -0.036
D12: F -0.186, T -0.073, N -0.004, K -0.066, R -0.1, Y -0.116, V -0.137, G -0.095, M -0.144, P -0.058, W -0.255, E -0.053, A -0.024, S -0.027, L -0.173, Q -0.155
